Where a chain is given by its changes, count along the chain named. Each block holds one binder with its values, some of them ahead of it. Where no end group is shown, it is not given here. [ ]: non-standard residue; d: D form. Aib = CC(C)(N)C(=O)O
Legend:
[1] = molecular target: GLP-1 receptor (GLP-1R), stably expressed on HEK293 cells; assay: cell-based or functional assay
[2] = molecular target: Glucagon receptor (GCGR), stably expressed on HEK293 cells; assay: cell-based or functional assay

B1: dgc005 (peptide)
peptide: HXQGTFTSDYSKYLEERAAKEFIAWLEAGG
HELM: PEPTIDE1{H.[Aib].Q.G.T.F.T.S.D.Y.S.K.Y.L.E.E.R.A.A.K.E.F.I.A.W.L.E.A.G.G.[am]}|PEPTIDE2{[CCCCCCCCCCCCCCCC(=O)[*:2]].[gGlu].[gGlu]}$PEPTIDE1,PEPTIDE2,20:R3-3:R2$$$V2.0; N-terminus assumed
SMILES: CCCCCCCCCCCCCCCC(=O)N[C@@H](CCC(=O)N[C@@H](CCC(=O)NCCCC[C@H](NC(=O)[C@H](C)NC(=O)[C@H](C)NC(=O)[C@H](CCCNC(=N)N)NC(=O)[C@H](CCC(=O)O)NC(=O)[C@H](CCC(=O)O)NC(=O)[C@H](CC(C)C)NC(=O)[C@H](Cc1ccc(O)cc1)NC(=O)[C@H](CCCCN)NC(=O)[C@H](CO)NC(=O)[C@H](Cc1ccc(O)cc1)NC(=O)[C@H](CC(=O)O)NC(=O)[C@H](CO)NC(=O)[C@@H](NC(=O)[C@H](Cc1ccccc1)NC(=O)[C@@H](NC(=O)CNC(=O)[C@H](CCC(N)=O)NC(=O)C(C)(C)NC(=O)[C@@H](N)Cc1c[nH]cn1)[C@@H](C)O)[C@@H](C)O)C(=O)N[C@@H](CCC(=O)O)C(=O)N[C@@H](Cc1ccccc1)C(=O)N[C@H](C(=O)N[C@@H](C)C(=O)N[C@@H](Cc1c[nH]c2ccccc12)C(=O)N[C@@H](CC(C)C)C(=O)N[C@@H](CCC(=O)O)C(=O)N[C@@H](C)C(=O)NCC(=O)NCC(N)=O)[C@@H](C)CC)C(=O)O)C(=O)O
GLP-1R (nM EC50), receptor-mediated cAMP production in HEK293 cells [1]: 0.484 nM
GCGR (nM EC50), receptor-mediated cAMP production in HEK293 cells [2]: 1.16 nM

B3: dgc006 (peptide)
peptide: H[Aib]QGTFTSDYSKYLEERAAKEFIAWLEAGG-NH2
modifications: not fully specified (residue 20)
GLP-1R (nM EC50), receptor-mediated cAMP production in HEK293 cells [1]: 0.472 nM
GCGR (nM EC50), receptor-mediated cAMP production in HEK293 cells [2]: 6.41 nM

The next lines start with the values.

GLP-1R (nM EC50), receptor-mediated cAMP production in HEK293 cells [1]: 0.28 nM
GCGR (nM EC50), receptor-mediated cAMP production in HEK293 cells [2]: 0.971 nM
B2: dgc007 (peptide)
peptide: B1 peptide with E15D, A28S
HELM: PEPTIDE1{H.[Aib].Q.G.T.F.T.S.D.Y.S.K.Y.L.D.E.R.A.A.K.E.F.I.A.W.L.E.S.G.G.[am]}|PEPTIDE2{[CCCCCCCCCCCCCCCC(=O)[*:2]].[gGlu]}$PEPTIDE1,PEPTIDE2,20:R3-2:R2$$$V2.0; N-terminus assumed
SMILES: CCCCCCCCCCCCCCCC(=O)N[C@@H](CCC(=O)NCCCC[C@H](NC(=O)[C@H](C)NC(=O)[C@H](C)NC(=O)[C@H](CCCNC(=N)N)NC(=O)[C@H](CCC(=O)O)NC(=O)[C@H](CC(=O)O)NC(=O)[C@H](CC(C)C)NC(=O)[C@H](Cc1ccc(O)cc1)NC(=O)[C@H](CCCCN)NC(=O)[C@H](CO)NC(=O)[C@H](Cc1ccc(O)cc1)NC(=O)[C@H](CC(=O)O)NC(=O)[C@H](CO)NC(=O)[C@@H](NC(=O)[C@H](Cc1ccccc1)NC(=O)[C@@H](NC(=O)CNC(=O)[C@H](CCC(N)=O)NC(=O)C(C)(C)NC(=O)[C@@H](N)Cc1c[nH]cn1)[C@@H](C)O)[C@@H](C)O)C(=O)N[C@@H](CCC(=O)O)C(=O)N[C@@H](Cc1ccccc1)C(=O)N[C@H](C(=O)N[C@@H](C)C(=O)N[C@@H](Cc1c[nH]c2ccccc12)C(=O)N[C@@H](CC(C)C)C(=O)N[C@@H](CCC(=O)O)C(=O)N[C@@H](CO)C(=O)NCC(=O)NCC(N)=O)[C@@H](C)CC)C(=O)O

GLP-1R (nM EC50), receptor-mediated cAMP production in HEK293 cells [1]: 0.113 nM
GCGR (nM EC50), receptor-mediated cAMP production in HEK293 cells [2]: 5.84 nM
B4: dgc004 (peptide)
peptide: B1 peptide
HELM: PEPTIDE1{H.[Aib].Q.G.T.F.T.S.D.Y.S.K.Y.L.E.E.R.A.A.K.E.F.I.A.W.L.E.A.G.G.[am]}|PEPTIDE2{[CCCCCCCCCCCCCCCC(=O)[*:2]].[gGlu]}$PEPTIDE1,PEPTIDE2,20:R3-2:R2$$$V2.0; N-terminus assumed
SMILES: CCCCCCCCCCCCCCCC(=O)N[C@@H](CCC(=O)NCCCC[C@H](NC(=O)[C@H](C)NC(=O)[C@H](C)NC(=O)[C@H](CCCNC(=N)N)NC(=O)[C@H](CCC(=O)O)NC(=O)[C@H](CCC(=O)O)NC(=O)[C@H](CC(C)C)NC(=O)[C@H](Cc1ccc(O)cc1)NC(=O)[C@H](CCCCN)NC(=O)[C@H](CO)NC(=O)[C@H](Cc1ccc(O)cc1)NC(=O)[C@H](CC(=O)O)NC(=O)[C@H](CO)NC(=O)[C@@H](NC(=O)[C@H](Cc1ccccc1)NC(=O)[C@@H](NC(=O)CNC(=O)[C@H](CCC(N)=O)NC(=O)C(C)(C)NC(=O)[C@@H](N)Cc1c[nH]cn1)[C@@H](C)O)[C@@H](C)O)C(=O)N[C@@H](CCC(=O)O)C(=O)N[C@@H](Cc1ccccc1)C(=O)N[C@H](C(=O)N[C@@H](C)C(=O)N[C@@H](Cc1c[nH]c2ccccc12)C(=O)N[C@@H](CC(C)C)C(=O)N[C@@H](CCC(=O)O)C(=O)N[C@@H](C)C(=O)NCC(=O)NCC(N)=O)[C@@H](C)CC)C(=O)O

GLP-1R (nM EC50), receptor-mediated cAMP production in HEK293 cells [1]: 0.742 nM
GCGR (nM EC50), receptor-mediated cAMP production in HEK293 cells [2]: 2.03 nM
B5: dgc008 (peptide)
peptide: B1 peptide with A28S
HELM: PEPTIDE1{H.[Aib].Q.G.T.F.T.S.D.Y.S.K.Y.L.E.E.R.A.A.K.E.F.I.A.W.L.E.S.G.G.[am]}|PEPTIDE2{[CCCCCCCCCCCCCCCC(=O)[*:2]].[gGlu]}$PEPTIDE1,PEPTIDE2,20:R3-2:R2$$$V2.0; N-terminus assumed
SMILES: CCCCCCCCCCCCCCCC(=O)N[C@@H](CCC(=O)NCCCC[C@H](NC(=O)[C@H](C)NC(=O)[C@H](C)NC(=O)[C@H](CCCNC(=N)N)NC(=O)[C@H](CCC(=O)O)NC(=O)[C@H](CCC(=O)O)NC(=O)[C@H](CC(C)C)NC(=O)[C@H](Cc1ccc(O)cc1)NC(=O)[C@H](CCCCN)NC(=O)[C@H](CO)NC(=O)[C@H](Cc1ccc(O)cc1)NC(=O)[C@H](CC(=O)O)NC(=O)[C@H](CO)NC(=O)[C@@H](NC(=O)[C@H](Cc1ccccc1)NC(=O)[C@@H](NC(=O)CNC(=O)[C@H](CCC(N)=O)NC(=O)C(C)(C)NC(=O)[C@@H](N)Cc1c[nH]cn1)[C@@H](C)O)[C@@H](C)O)C(=O)N[C@@H](CCC(=O)O)C(=O)N[C@@H](Cc1ccccc1)C(=O)N[C@H](C(=O)N[C@@H](C)C(=O)N[C@@H](Cc1c[nH]c2ccccc12)C(=O)N[C@@H](CC(C)C)C(=O)N[C@@H](CCC(=O)O)C(=O)N[C@@H](CO)C(=O)NCC(=O)NCC(N)=O)[C@@H](C)CC)C(=O)O

GLP-1R (nM EC50), receptor-mediated cAMP production in HEK293 cells [1]: 0.092 nM
GCGR (nM EC50), receptor-mediated cAMP production in HEK293 cells [2]: 8.22 nM
B6: dgc009 (peptide)
peptide: H[Aib]QGTFTSDYSKYLEERAAKEFIAWLESGG-NH2
modifications: not fully specified (residue 20); printed as HAibQGTFTSDYSKYLEERAAK*EFIAWLESGG
